The record followed here is US20220259593A1, “CONTROL OF MAMMALIAN GENE DOSAGE USING CRISPR” (The Regents of the University of California, priority 2019, published 2022).

This data set relates to K562 CRISPRi cells. The data set can be described thus: Constant region variant library pooled growth screen, K562. It is filed as cell-based, human. As to conditions: sgRNA constant region variants, un-modified constant region cr995. In outline:
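Growth screens in K562 CRISPRi cells were harvested 4-8 days post-selection at >2000× library coverage. Each variant's phenotype was referenced to the unmodified constant region with the same targeting sequence.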

Setting [1] is: relative to the original, CRISPRi.
[2] abbreviates: activity relative to the original.

B1: cr904 (nucleic acid)
guide: GTTTAAGAGCTAAGCTGGAAACAGCATAGCAAGTTTAAATAAGTCTAGTACGTTATCAATTTGAAAAAATGGCAACGAGTCGTTGCT
modifications: listed as DNA, chemistry not fully specified
Under setting [1], B1 had a Mean relative activity of 0.4677.

B2: cr765 (nucleic acid)
guide: GTTTAAGAGCTAAGCTGGAAACAGCATAGCAAGTTTAAATAAGGCTAGTCCGTTATCAACTGGAAACAGTGGCACTCAGTGAGTGCT
modifications: listed as DNA, chemistry not fully specified
The molecule B2 gave a Mean relative activity under setting [1] of 0.4931.

B3: cr873 (nucleic acid)
guide: GTTTAAGAGCTAAGCTGGAAACAGCATAGCAAGCTTAAATAAGGCTAGTCCGTTATCAACTAGAAATAGTGGCACCGAGTCGGTGCT
modifications: listed as DNA, chemistry not fully specified
B3 registered a Mean relative activity under setting [1] of 0.4546.

B4: cr620 (nucleic acid)
guide: GTTTAAGAGCTAAGCTGGAAACAGCATAGCAAGTTTAAATAAGGGTACTCCGTTATCAACTTGAAAAAGTGGAACTGAGTCAGTTCT
modifications: listed as DNA, chemistry not fully specified
Take B4: the Mean relative activity under setting [1] is recorded as 0.4842.

B5: cr399 (nucleic acid)
guide: GTTTAAGAGCTAAGCTGGAAACAGCATAGCAAGTTTAAATAAGGCTAGTCCGTTATCAACTTGAAAAAGTGGCACCGAGTCCGTGCT
modifications: listed as DNA, chemistry not fully specified
Under setting [1], B5 came in with a Mean relative activity of 0.4727.

B6: cr721 (nucleic acid)
guide: GTTTAAGAGCTAAGCTGGAAACAGCATAGCAAGTTTAAATAAGGCTAGTCCGCTATTAACTTGAAAAAGTGGCACCGAATCGGTGCT
modifications: listed as DNA, chemistry not fully specified
Molecule B6 came in with a Mean relative activity under setting [1] of 0.4696.

B7: cr866 (nucleic acid)
guide: GTTTAAGAGCTAAGCTGGAAACAGCATAGCAAGTTTAAATAAGGCTAGTCCGTTATCAACTTGAAAAAGTGTCCCCGAGTCGGTGCT
modifications: listed as DNA, chemistry not fully specified
In the case of B7, under setting [1], the Mean relative activity was found to be 0.4434.

B8: cr071 (nucleic acid)
guide: GTTTACGGGCTAAGCTGGAAACAGCATAGCAAGTTTAAATAAGGCTAGTCCGTTATCAACTTGAAAAAGTGGCACCGAGTCGGTGCT
modifications: listed as DNA, chemistry not fully specified
The molecule B8 registered a Mean relative activity under setting [1] of 0.475.

B9: cr486 (nucleic acid)
guide: GTTTAAGAGCTAAGCTGGAAACAGCATAGCAAGTTTAAATAAGGCTAGTCCGTTATCAACTTGAAAAAGTGAAACTGAGTCAGTTTT
modifications: listed as DNA, chemistry not fully specified
With B9, the Mean relative activity under setting [1] is 0.4409.

B10: cr920 (nucleic acid)
guide: GTTTAAGAGCTAAGCTGGAAACAGCATAGCAAGTTTAAATAAGGCTAGTCCGTTGACTACTTGAAAAAGTGGCACCGAGTCGGTGCT
modifications: listed as DNA, chemistry not fully specified
Under setting [1], B10 returned a Mean relative activity of 0.4567.

B11: cr682 (nucleic acid)
guide: GTTTAAGAGCTAAGCTGGAAACAGCATAGCAAGTTTAAATAAGCGTACTGCGTTATCAACTTGAAAAAGTGGCACCGAGTCGGTGCT
modifications: listed as DNA, chemistry not fully specified
In the case of B11, the Mean relative activity under setting [1] is listed as 0.4794.

B12: cr177 (nucleic acid)
guide: GTTTAAGAGCTAAGCTGGAAACAGCATAGCAAGTTTAAAGAAGGCTAGTCCGTTATCAACTTGAAAAAGTGGCACCGAGTCGGTGCT
modifications: listed as DNA, chemistry not fully specified
For B12, the Mean relative activity under setting [1] came out at 0.4771.

B13: cr758 (nucleic acid)
guide: GTTTAAGAGCTAAGCTGGAAACAGCATAGCAAGCTTAAATAAGGCTAGTCCGCTATCAACTTGAAAAAGTGGCACCGAGTCGGTGCT
modifications: listed as DNA, chemistry not fully specified
For B13, under setting [1], the Mean relative activity was 0.4614.

B14: cr163 (nucleic acid)
guide: GTTTAAGAGCTAAGCTGGAAACAGCATAGCAAGCTTAAATAAGGCTAGTCCGTTATCAACTTGAAAAAGTGGCACCGAGTCGGTGCT
modifications: listed as DNA, chemistry not fully specified
As to B14, under setting [1], the Mean relative activity is 0.4662.

B15: cr016 (nucleic acid)
guide: GTTTATGAGCTAAGCTGGAAACAGCATAGCAAGTTTAAATAAGGCTAGTCCGTTATCAACTTGAAAAAGTGGCACCGAGTCGGTGCT
modifications: listed as DNA, chemistry not fully specified
Under setting [1], B15 showed a Mean relative activity of 0.4876.

B16: cr183 (nucleic acid)
guide: GTTTAAGAGCTAAGCTGGAAACAGCATAGCAAGTTTAAATAAGGTTAATCCGTTATCAACTTGAGAAAGTGGCACCGAGTCGGTGCT
modifications: listed as DNA, chemistry not fully specified
For B16, the Mean relative activity under setting [2] stood at 1.047.

B17: cr369 (nucleic acid)
guide: GTTTAAGAGCTAAGCTGGAAACAGCATAGCAAGTTTAAATAAGGCTAGTCCGTTATCAAATTGAAAAAGTGGCACCGAGTCGGTGCT
modifications: listed as DNA, chemistry not fully specified
In turn, B17 gave a Mean relative activity under setting [1] of 0.4754.

B18: cr955 (nucleic acid)
guide: GTTTAAGAGCTAAGCTGGAAACAGCATAGCAAGTTTAAATAAGGCTAATCCGTTATCAACTTGAAAAAGTGGCACCGAGTCGGTGCT
modifications: listed as DNA, chemistry not fully specified
Regarding B18, under setting [1], the Mean relative activity is reported as 0.4541.

B19: cr124 (nucleic acid)
guide: GTTTAAGAGCTAAGCTGGAAACAGCATAGCATGTTTAAATATGGCTAGTCCGTTATCAACTTGAAAAAGTGGCACCGAGTCGGTGCT
modifications: listed as DNA, chemistry not fully specified
In the case of B19, under setting [1], the Mean relative activity is 0.4757.

B20: cr485 (nucleic acid)
guide: GTTTAAGAGCTAAGCTGGAAACAGCATAGCAAGTTTAAATAAGGCTTGTCCGTTATCAACTTGAAAAAGTTGCACCGTGTCGGTGCT
modifications: listed as DNA, chemistry not fully specified
Under setting [1], B20 yielded a Mean relative activity of 0.4419.

B21: cr175 (nucleic acid)
guide: GTTTAAGAGCTAAGCTGGAAACAGCATAGCAAGTTTAAATAAGGCTAGTCCGTTATCCACTTGAAAAAGTGGCACCGAGTCGGTGCT
modifications: listed as DNA, chemistry not fully specified
For B21, the Mean relative activity under setting [1] was determined as 0.4914.

B22: cr770 (nucleic acid)
guide: GTTTAAGAGCTAAGCTGGAAACAGCATAGCAAGCTTAAATAAGGCTAGTCCGTTATCAACTTGAAAAAGTGGAACCGAGTCGGTTCT
modifications: listed as DNA, chemistry not fully specified
As to B22, under setting [1], the Mean relative activity is given as 0.4771.

B23: cr240 (nucleic acid)
guide: GTTTAAGAGCTAAGCTGGAAACAGCATAGCAAGTTTAAATAAGGCTAGTCCGTTAACAACTTGAAAAAGTGGCACCGAGTCGGTGCT
modifications: listed as DNA, chemistry not fully specified
The molecule B23 yielded a Mean relative activity under setting [2] of 1.046.

B24: cr425 (nucleic acid)
guide: GTTTAAGAGCTAAGCTGGAAACAGCATAGCAAGTTTAAATAAGGCTAGTCCGTTATCATCCTGAAAATGCGGCACCGAGTCGGTGCT
modifications: listed as DNA, chemistry not fully specified
Under setting [1], B24 displayed a Mean relative activity of 0.4409.

B25: cr868 (nucleic acid)
guide: GTTTAAGAGCTAAGCTGGAAACAGCATAGCAAGTTCAAATAAGGCTAGTCCGTTATCAACTTGAAAAAGTGGCACCGAGTCGGTGCT
modifications: listed as DNA, chemistry not fully specified
Regarding B25, the Mean relative activity under setting [1] was determined as 0.4517.

B26: cr405 (nucleic acid)
guide: GTTTAAGAGCTAAGCTGGAAACAGCATAGCAAGTTTAAATAAGGCTAGTCCGTTATCAACTTGAAAAAGTGTCAGCAAGTTGCTGAT
modifications: listed as DNA, chemistry not fully specified
With B26, the Mean relative activity under setting [1] is 0.4582.

B27: cr171 (nucleic acid)
guide: GTTTAAGAGCTAAGCTGGAAACAGCATAGCAAGTTTAAATAAGGCTAGTCCGTTATCAACCTGAGAAGGTGGCACCGAGTCGGTGCT
modifications: listed as DNA, chemistry not fully specified
With B27, the Mean relative activity under setting [2] was 1.044.

B28: cr668 (nucleic acid)
guide: GTTTAAGAGCTAAGCTGGAAACAGCATAGCAAGTTTAAATAAGGCTAGTCCGTTATCAAGTTGAAAAAGTGGCACCGAGTCGGTGCT
modifications: listed as DNA, chemistry not fully specified
As for B28, the Mean relative activity under setting [1] is 0.4445.

B29: cr493 (nucleic acid)
guide: GTTTAAGAGCTAAGCTGGAAACAGCATAGCAAGTTTAAATAAGGCTAGCCCGTTACAAACTTGAAAAAGTGGCACCGAGTCGGTGCT
modifications: listed as DNA, chemistry not fully specified
Molecule B29 registered a Mean relative activity under setting [1] of 0.4736.
